Laboratory results: paper doi:10.1101/2022.02.11.480038 (2022)
Where no end group is shown, it is not given here. [ ]: non-standard residue; d: D form. pS = N[C@@H](COP(=O)(O)O)C(=O)O

B1: Human GABARAP (residues 1-116) (natural protein)
chain: MKFVYKEEHPFEKRRSEGEKIRKKYPDRVPVIVEKAPKARIGDLDKKKYLVPSDLTVGQFYFLIRKRIHLRAEDALFFFVNNVIPPTSATMGQLYQEHHEEDFFLYIAYSDESVYG

Assays:
Assay in all cases: ITC
[1] = target: Human LC3B (residues 1-120) (human, UniProt Q9GZQ8 1-120)
[2] = target: B1
[3] = target: GABARAP Y5F H9A mutant (human, UniProt O95166 1-116, Y5F | H9A)
GABARAP Y5F H9A mutant, sequence (O95166 1-116 Y5F/H9A): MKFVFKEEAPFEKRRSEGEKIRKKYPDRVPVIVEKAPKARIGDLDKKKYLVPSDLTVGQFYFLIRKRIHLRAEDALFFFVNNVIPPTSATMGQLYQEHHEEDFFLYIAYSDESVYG

[4] = target: Y5F H9A K48A
[5] = target: TEX264 269-278 S271A,S272A

| Binder | Kd [1] [µM] | Kd [2] [nM] | Kd [3] [nM] | Kd [4] [µM] | Kd [5] [µM] |
| --- | --- | --- | --- | --- | --- |
| SGASGSSFEELDL [TEX264 LIR peptide (residues 266-278), unphosphorylated] | 39 | 61000 |  |  |  |
| [pS]G[pS][pS]FEELDL [TEX264 peptide (residues 269-278) with p-S269, p-S271, p-S272] | 0.25 | 250 |  |  |  |
| [pS]GASGSSFEELDL [TEX264 LIR peptide (residues 266-278) with S266 phosphorylation (p-S266)] | 22 | 9300 |  |  |  |
| SGS[pS]FEELDL [TEX264 peptide (residues 269-278) with S272 phosphorylation (p-S272)] | 0.57 | 2100 |  |  |  |
| SG[pS][pS]FEELDL [phosphorylated TEX264 LIR (residues 269-278 with p-S271,p-S272)] | 0.37 | 520 | 2200 | 30 |  |
| SGDDFEELDL [phosphomimetic TEX264^(S271D, S272D) peptide (2SD-LIR)] | 7.6 | 2100 |  |  |  |
| EGEEFEELDL [phosphomimetic TEX264^(S269E, S271E, S272E) peptide (3SE-LIR)] | 5 | 2200 |  |  |  |
| SGEEFEELDL [phosphomimetic TEX264^(S271, 272E) peptide (2SE-LIR)] | 5.2 | 2300 |  |  |  |
| SGSSFEELDL [TEX264 LIR peptide (residues 269-278), unphosphorylated wild type] | 21 | 47000 |  |  |  |
| DGDDFEELDL [phosphomimetic TEX264^(S269D, S271D, S272D) peptide (3SD-LIR)] | 6.8 | 2200 |  |  |  |
| B1 |  |  |  |  | 72 |
